B1: Zinc finger protein 655 (Homo sapiens), Q8N720 (parent)
chain: MEEIPAQEAAGSPRVQFQSLETQSECLSPEPQFVQDTDMEQGLTGDGETREENKLLIPKQKISEEVHSYKVRVGRLKHDITQVPETREVYKSEDRLERLQEILRKFLYLEREFRQITISKETFTSEKNNECHEPEKSFSLDSTIDADQRVLRIQNTDDNDKYDMSFNQNSASGKHEHLNLTEDFQSSECKESLMDLSHLNKWESIPNTEKSYKCDVCGKIFHQSSALTRHQRIHTREKPYKCKECEKSFSQSSSLSRHKRIHTREKPYKCEASDKSCEASDKSCSPSSGIIQHKKIHTRAKSYKCSSCERVFSRSVHLTQHQKIHKEMPCKCTVCGSDFCHTSYLLEHQRVHHEEKAYEYDEYGLAYIKQQGIHFREKPYTCSECGKDFRLNSHLIQHQRIHTGEKAHECNECGKAFSQTSCLIQHHKMHRKEKSYECNEYEGSFSHSSDLILQQEVLTRQKAFDCDVWEKNSSQRAHLVQHQSIHTKENS
partner: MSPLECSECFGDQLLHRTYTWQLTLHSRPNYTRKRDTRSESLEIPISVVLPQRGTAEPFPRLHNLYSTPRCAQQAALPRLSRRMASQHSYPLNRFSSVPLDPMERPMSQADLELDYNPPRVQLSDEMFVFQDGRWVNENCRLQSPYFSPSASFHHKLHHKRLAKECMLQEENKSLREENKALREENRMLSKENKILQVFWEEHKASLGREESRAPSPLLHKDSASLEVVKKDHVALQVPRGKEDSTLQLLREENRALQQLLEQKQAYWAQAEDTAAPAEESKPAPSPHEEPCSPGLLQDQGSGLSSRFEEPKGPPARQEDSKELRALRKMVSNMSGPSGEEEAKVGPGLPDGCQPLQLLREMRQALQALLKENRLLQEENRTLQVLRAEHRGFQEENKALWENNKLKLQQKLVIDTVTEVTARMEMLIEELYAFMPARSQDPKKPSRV
B2: MIF4G domain-containing protein (Homo sapiens), A9UHW6 (parent)
chain: MGEPSREEYKIQSFDAETQQLLKTALKDPGAVDLEKVANVIVDHSLQDCVFSKEAGRMCYAIIQAESKQAGQSVFRRGLLNRLQQEYQAREQLRARSLQGWVCYVTFICNIFDYLRVNNMPMMALVNPVYDCLFRLAQPDSLSKEEEVDCLVLQLHRVGEQLEKMNGQRMDELFVLIRDGFLLPTGLSSLAQLLLLEIIEFRAAGWKTTPAAHKYYYSEVSD
B3: Proton-coupled zinc antiporter SLC30A2 (Homo sapiens), Q9BRI3 (parent)
chain: MEAKEKQHLLDARPAIRSYTGSLWQEGAGWIPLPRPGLDLQAIELAAQSNHHCHAQKGPDSHCDPKKGKAQRQLYVASAICLLFMIGEVVGGYLAHSLAVMTDAAHLLTDFASMLISLFSLWMSSRPATKTMNFGWQRAEILGALVSVLSIWVVTGVLVYLAVERLISGDYEIDGGTMLITSGCAVAVNIIMGLTLHQSGHGHSHGTTNQQEENPSVRAAFIHVIGDFMQSMGVLVAAYILYFKPEYKYVDPICTFVFSILVLGTTLTILRDVILVLMEGTPKGVDFTAVRDLLLSVEGVEALHSLHIWALTVAQPVLSVHIAIAQNTDAQAVLKTASSRLQGKFHFHTVTIQIEDYSEDMKDCQACQGPSD
B4: Nucleolar protein 12 (Homo sapiens), Q9UGY1 (parent)
chain: MGRNKKKKRDGDDRRPRLVLSFDEEKRREYLTGFHKRKVERKKAAIEEIKQRLKEEQRKLREERHQEYLKMLAEREEALEEADELDRLVTAKTESVQYDHPNHTVTVTTISDLDLSGARLLGLTPPEGGAGDRSEEEASSTEKPTKALPRKSRDPLLSQRISSLTASLHAHSRKKVKRKHPRRAQDSKKPPRAPRTSKAQRRRLTGKARHSGE
B5: U6 snRNA-associated Sm-like protein LSm7 (Homo sapiens), Q9UK45 (parent)
chain: MADKEKKKKESILDLSKYIDKTIRVKFQGGREASGILKGFDPLLNLVLDGTIEYMRDPDDQYKLTEDTRQLGLVVCRGTSVVLICPQDGMEAIPNPFIQQQDA
B6: Protein phosphatase 1 regulatory inhibitor subunit 16B (Homo sapiens), Q96T49 (parent)
chain: MASHVDLLTELQLLEKVPTLERLRAAQKRRAQQLKKWAQYEQDLQHRKRKHERKRSTGGRRKKVSFEASVALLEASLRNDAEEVRYFLKNKVSPDLCNEDGLTALHQCCIDNFEEIVKLLLSHGANVNAKDNELWTPLHAAATCGHINLVKILVQYGADLLAVNSDGNMPYDLCEDEPTLDVIETCMAYQGITQEKINEMRVAPEQQMIADIHCMIAAGQDLDWIDAQGATLLHIAGANGYLRAAELLLDHGVRVDVKDWDGWEPLHAAAFWGQMQMAELLVSHGASLSARTSMDEMPIDLCEEEEFKVLLLELKHKHDVIMKSQLRHKSSLSRRTSSAGSRGKVVRRASLSDRTNLYRKEYEGEAILWQRSAAEDQRTSTYNGDIRETRTDQENKDPNPRLEKPVLLSEFPTKIPRGELDMPVENGLRAPVSAYQYALANGDVWKVHEVPDYSMAYGNPGVADATPPWSSYKEQSPQTLLELKRQRAAAKLLSHPFLSTHLGSSMARTGESSSEGKAPLIGGRTSPYSSNGTSVYYTVTSGDPPLLKFKAPIEEMEEKVHGCCRIS
partner: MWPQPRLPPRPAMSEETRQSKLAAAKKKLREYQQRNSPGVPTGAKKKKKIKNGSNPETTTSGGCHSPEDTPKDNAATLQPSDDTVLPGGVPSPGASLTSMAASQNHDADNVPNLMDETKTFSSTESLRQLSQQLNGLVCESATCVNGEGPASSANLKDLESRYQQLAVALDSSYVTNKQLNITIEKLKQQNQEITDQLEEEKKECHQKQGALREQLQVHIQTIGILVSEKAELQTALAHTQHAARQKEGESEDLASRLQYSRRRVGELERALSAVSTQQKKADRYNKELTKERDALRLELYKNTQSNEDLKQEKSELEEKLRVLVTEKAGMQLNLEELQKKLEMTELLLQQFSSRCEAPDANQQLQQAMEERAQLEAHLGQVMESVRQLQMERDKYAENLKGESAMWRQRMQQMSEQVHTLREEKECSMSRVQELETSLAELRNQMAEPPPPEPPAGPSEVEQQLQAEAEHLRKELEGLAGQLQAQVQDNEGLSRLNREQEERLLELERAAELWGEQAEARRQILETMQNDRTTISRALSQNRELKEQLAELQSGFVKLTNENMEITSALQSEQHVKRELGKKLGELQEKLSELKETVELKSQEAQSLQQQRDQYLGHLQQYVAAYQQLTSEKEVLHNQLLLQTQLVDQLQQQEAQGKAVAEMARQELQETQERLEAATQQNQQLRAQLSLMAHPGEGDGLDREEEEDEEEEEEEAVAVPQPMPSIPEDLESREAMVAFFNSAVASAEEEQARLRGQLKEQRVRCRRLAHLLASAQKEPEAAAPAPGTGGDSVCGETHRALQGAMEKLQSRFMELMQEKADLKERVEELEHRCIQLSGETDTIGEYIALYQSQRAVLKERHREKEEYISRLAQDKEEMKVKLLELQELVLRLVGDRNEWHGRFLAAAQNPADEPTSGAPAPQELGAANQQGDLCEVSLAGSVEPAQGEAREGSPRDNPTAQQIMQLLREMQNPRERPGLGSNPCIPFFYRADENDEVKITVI
B7: DnaJ homolog subfamily C member 30, mitochondrial (Homo sapiens), Q96LL9 (parent)
chain: MAAMRWRWWQRLLPWRLLQARGFPQNSAPSLGLGARTYSQGDCSYSRTALYDLLGVPSTATQAQIKAAYYRQCFLYHPDRNSGSAEAAERFTRISQAYVVLGSATLRRKYDRGLLSDEDLRGPGVRPSRTPAPDPGSPRTPPPTSRTHDGSRASPGANRTMFNFDAFYQAHYGEQLERERRLRARREALRKRQEYRSMKGLRWEDTRDTAAIFLIFSIFIIIGFYI
partner: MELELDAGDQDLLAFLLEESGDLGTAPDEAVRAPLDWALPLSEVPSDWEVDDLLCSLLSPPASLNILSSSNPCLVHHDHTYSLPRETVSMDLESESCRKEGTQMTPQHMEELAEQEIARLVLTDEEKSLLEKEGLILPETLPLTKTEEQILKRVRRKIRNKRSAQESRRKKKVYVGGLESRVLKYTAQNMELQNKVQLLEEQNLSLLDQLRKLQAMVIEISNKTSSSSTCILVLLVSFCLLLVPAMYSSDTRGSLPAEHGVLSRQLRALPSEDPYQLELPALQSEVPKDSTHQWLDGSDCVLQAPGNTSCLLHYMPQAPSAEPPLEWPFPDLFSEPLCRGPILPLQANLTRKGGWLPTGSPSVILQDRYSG
B8: Casein kinase II subunit alpha' (Homo sapiens), P19784 (parent)
chain: MPGPAAGSRARVYAEVNSLRSREYWDYEAHVPSWGNQDDYQLVRKLGRGKYSEVFEAINITNNERVVVKILKPVKKKKIKREVKILENLRGGTNIIKLIDTVKDPVSKTPALVFEYINNTDFKQLYQILTDFDIRFYMYELLKALDYCHSKGIMHRDVKPHNVMIDHQQKKLRLIDWGLAEFYHPAQEYNVRVASRYFKGPELLVDYQMYDYSLDMWSLGCMLASMIFRREPFFHGQDNYDQLVRIAKVLGTEELYGYLKKYHIDLDPHFNDILGQHSRKRWENFIHSENRHLVSPEALDLLDKLLRYDHQQRLTAKEAMEHPYFYPVVKEQSQPCADNAVLSSGLTAAR
B9: Protein DBF4 homolog B (Homo sapiens), Q8NFT6 (parent)
chain: MSEPGKGDDCLELESSMAESRLRAPDLGVSRCLGKCQKNSPGARKHPFSGKSFYLDLPAGKNLQFLTGAIQQLGGVIEGFLSKEVSYIVSSRREVKAESSGKSHRGCPSPSPSEVRVETSAMVDPKGSHPRPSRKPVDSVPLSRGKELLQKAIRNQGSISGGGSGGSSSLLTNARSWGVRILHVDEMMMHVQQLSLASLCVKKQQPKKPEGTCPAAESRTRKVARLKAPFLKIEDESRKFRPFHHQFKSFPEISFLGPKDASPFEAPTTLGSMHHTRESKDGEPSPRSAAHTMPRRKKGYCECCQEAFEELHVHLQSAQHRSFALEAHLYAEVDRIIAQLSHSFADIPFQAGLPRWSGSPASDCDPLCPETLHPHQPSHPRAASPRIRKEDSCQASVTQGRAAGQQRWTESLDGVMGPPASHTCVSATTLLPALPKGSREQGCLCPCPASFTQSHLVTSLALLPGEWSPAEDMPLHPSQENSFAPADIPVKGPLLFPEARPWLMSARCWVRPFPFVTWGCLIPHDTTPLHEEVSPCPCLRLGYLYLLLTQSLWCRVRVPSLSTAGPIPRTSHPCTLAFPSYLNDHDLGHLCQAKPQGWNTPQPFLHCGFLAVDSG
partner: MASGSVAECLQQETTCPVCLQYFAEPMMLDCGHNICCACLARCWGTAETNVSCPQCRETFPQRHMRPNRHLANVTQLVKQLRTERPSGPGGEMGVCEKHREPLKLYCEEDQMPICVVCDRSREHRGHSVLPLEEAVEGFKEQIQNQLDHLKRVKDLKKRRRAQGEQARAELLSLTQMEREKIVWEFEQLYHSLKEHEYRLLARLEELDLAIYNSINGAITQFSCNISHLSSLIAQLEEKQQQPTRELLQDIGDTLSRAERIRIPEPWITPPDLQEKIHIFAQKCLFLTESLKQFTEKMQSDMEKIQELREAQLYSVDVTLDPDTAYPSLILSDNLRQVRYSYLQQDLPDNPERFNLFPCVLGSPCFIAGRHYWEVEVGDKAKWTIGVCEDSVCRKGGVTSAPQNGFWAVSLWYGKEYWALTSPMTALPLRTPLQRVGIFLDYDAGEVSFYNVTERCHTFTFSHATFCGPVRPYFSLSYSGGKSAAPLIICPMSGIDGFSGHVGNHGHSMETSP

Variants of: B1
Settings: with cby2_human CBY2, Q8NA61

Row | effect of a mutation on the interaction | Variant
1 | with no effect | C466G

Variants of: B2
Settings: with hgs_human HGS

Row | effect of a mutation on the interaction | Variant
2 | with no effect | E160K

Variants of: B3
Settings: with tnr12_human TNFRSF12A

Row | effect of a mutation on the interaction | Variant
3 | with no effect | T181M

Variants of: B3
Settings: with ada33_human ADAM33, Q9BZ11
Chain of ada33_human ADAM33, Q9BZ11 (Q9BZ11 whole entry): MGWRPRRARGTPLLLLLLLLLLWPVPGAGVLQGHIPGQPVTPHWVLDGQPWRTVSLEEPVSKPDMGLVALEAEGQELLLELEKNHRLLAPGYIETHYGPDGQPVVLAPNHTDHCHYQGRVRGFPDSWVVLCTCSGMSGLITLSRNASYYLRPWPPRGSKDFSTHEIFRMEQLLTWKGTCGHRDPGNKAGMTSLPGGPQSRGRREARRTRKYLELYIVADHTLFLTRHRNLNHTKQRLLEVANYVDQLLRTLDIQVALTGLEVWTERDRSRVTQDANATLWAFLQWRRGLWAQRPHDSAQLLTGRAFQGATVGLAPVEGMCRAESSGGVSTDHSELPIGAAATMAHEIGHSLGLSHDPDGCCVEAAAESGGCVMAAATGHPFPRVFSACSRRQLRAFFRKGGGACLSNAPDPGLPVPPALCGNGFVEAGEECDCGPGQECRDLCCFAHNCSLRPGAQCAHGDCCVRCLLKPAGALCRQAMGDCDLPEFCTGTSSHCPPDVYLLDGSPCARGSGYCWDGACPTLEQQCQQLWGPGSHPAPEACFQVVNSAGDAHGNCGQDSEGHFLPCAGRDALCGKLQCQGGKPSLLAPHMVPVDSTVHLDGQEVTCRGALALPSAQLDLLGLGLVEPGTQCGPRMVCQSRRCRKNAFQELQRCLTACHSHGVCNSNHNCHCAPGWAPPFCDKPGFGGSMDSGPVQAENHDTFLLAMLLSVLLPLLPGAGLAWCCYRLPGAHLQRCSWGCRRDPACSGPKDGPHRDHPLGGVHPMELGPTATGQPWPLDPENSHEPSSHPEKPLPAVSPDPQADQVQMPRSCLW

Row | effect of a mutation on the interaction | Variant
4 | with no effect | T181M

Variants of: B3
Settings: with ccl4_human CCL4, P13236
Chain of ccl4_human CCL4, P13236 (P13236 whole entry): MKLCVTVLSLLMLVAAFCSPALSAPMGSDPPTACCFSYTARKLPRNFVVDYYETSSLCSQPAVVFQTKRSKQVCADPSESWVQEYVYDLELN

Row | effect of a mutation on the interaction | Variant
5 | with no effect | T181M

Variants of: B4
Settings: with cep70_human CEP70, Q8NHQ1
Chain of cep70_human CEP70, Q8NHQ1 (Q8NHQ1 whole entry): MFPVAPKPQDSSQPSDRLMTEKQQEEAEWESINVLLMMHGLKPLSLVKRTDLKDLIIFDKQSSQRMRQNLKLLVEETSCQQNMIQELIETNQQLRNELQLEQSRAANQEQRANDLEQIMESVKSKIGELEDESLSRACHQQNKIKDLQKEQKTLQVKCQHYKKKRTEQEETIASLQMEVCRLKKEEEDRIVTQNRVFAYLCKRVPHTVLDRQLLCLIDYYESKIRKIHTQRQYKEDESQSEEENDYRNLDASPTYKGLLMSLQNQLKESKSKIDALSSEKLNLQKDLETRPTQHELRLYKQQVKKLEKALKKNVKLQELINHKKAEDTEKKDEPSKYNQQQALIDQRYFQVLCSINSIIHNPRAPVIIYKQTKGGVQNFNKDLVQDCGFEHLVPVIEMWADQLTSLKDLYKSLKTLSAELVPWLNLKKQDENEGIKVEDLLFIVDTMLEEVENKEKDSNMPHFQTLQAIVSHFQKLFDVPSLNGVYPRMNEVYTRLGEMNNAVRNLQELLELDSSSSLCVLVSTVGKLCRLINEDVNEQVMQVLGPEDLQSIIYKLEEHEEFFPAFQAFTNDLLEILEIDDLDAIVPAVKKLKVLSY

Row | effect of a mutation on the interaction | Variant
6 | with no effect | Y98H

Variants of: B5
Settings: with lsm5_human LSM5, Q9Y4Y9
Chain of lsm5_human LSM5, Q9Y4Y9 (Q9Y4Y9 whole entry): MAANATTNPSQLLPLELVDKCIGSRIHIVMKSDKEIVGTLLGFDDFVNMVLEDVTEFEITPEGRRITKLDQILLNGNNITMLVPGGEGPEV

Row | effect of a mutation on the interaction | Variant
7 | with no effect | G78A

Variants of: B6
Settings: with goga2_human GOLGA2, Q08379

Row | effect of a mutation on the interaction | Variant
8 | with no effect | P519S

Variants of: B7
Settings: with creb3_human CREB3, O43889

Row | effect of a mutation on the interaction | Variant
9 | with no effect | T48K

Variants of: B8
Settings: with tri41_human TRIM41, Q8WV44

Row | effect of a mutation on the interaction | Variant
10 | with no effect | N63T

Variants of: B9
Settings: with tri27_human TRIM27, P14373

Row | effect of a mutation on the interaction | Variant
11 | with no effect | L199S

Reference: IntAct's records for PubMed 31515488
